The assay concerns the target T1, human HER2 on tumor cells (MDA-MB-468-HER2++ cells transduced with human HER2; T47D cells) (human, UniProt P04626 23-1255).
T1 construct: whole, on cells; also called ErbB2
The experiment in a line: flow cytometry sorting of MDA-MB-468-HER2++ cells. Background: A flow cytometer gives signals particle by particle.

B1: ICR12 rat anti-human HER2 antibody (antibody, V domains shown)
VH: EVQLQESGPGLVKPSQSLSLTCSVTGYSITTDYWGWIRKFPGNKMEWMGYISYSGSTGYNPSLKSRISITRDTSKSQFFLQLNSVTTEDTATYYCARYSSLDYWGRGVMVAVSS
VL: DVVMTQTPPSLSVAIGQSVSISCKSSQSLVYSDGKTYLHWLLQSPGRSPKRLIYQVSNLGSGVPDRFSGTGSQKDFTLKISRVEAEDLGVYYCAQTTHFPLTFGSGTKLEIK
notes: VH and VL stand within it
For B1, the binding result is “binds”.

The values above are taken from US20220152103A1 (LEUCID BIO, published 2022).
